The values below are quoted from earlier work in paper PMC11858487.

This series addresses EGFR (Homo sapiens) (UniProt P00533).

Usually Kd stands for the free concentration of one partner at which half of the binding sites on the other are occupied at equilibrium, for simple one-to-one binding. Take [99mTc]Tc-SYPIPDT-ECG-TAMRA: the Kd is 76.5 nM.
